Sequences and labels used below:
B1: V531D: Arabidopsis thaliana DWF1 protein V531D mutant, disturbing the hydrophobic surface of the CaMBD (protein, listed as Arabidopsis thaliana)
chain: MSDLQTPLVRPKRKKTWVDYFVKFRWIIVIFIVLPFSATFYFLIYLGDMWSESKSFEKRQKEHDENVKKVIKRLKGRDASKDGLVCTARKPWIAVGMRNVDYKRARHFEVDLGEFRNILEINKEKMTARVEPLVNMGQISRATVPMNLSLAVVAELDDLTVGGLINGYGIEGSSHIYGLFADTVEAYEIVLAGGELVRATRDNEYSDLYYAIPWSQGTLGLLVAAEIRLIKVKEYMRLTYIPVKGDLQALAQGYIDSFAPKDGDKSKIPDFVEGMVYNPTEGVMMVGTYASKEEAKKKGNKINNVGWWFKPWFYQHAQTALKKGQFVEYIPTREYYHRHTRCLYWEGKLILPFGDQFWFRYLLGWLMPPKVSLLKATQGEAIRNYYHDMHVIQDMLVPLYKVGDALEWVHREMEVYPIWLCPHKLFKQPIKGQIYPEPGFEYENRQGDTEDAQMYTDVGVYYAPGCVLRGEEFDGSEAVRRMEKWLIENHGFQPQYAVSELDEKSFWRMFNGELYEECRKKYRAIGTFMSDYYKSKKGRKTEKEVREAEQAHLETAYAEAD
B2: KYR52-5231DGD: Arabidopsis thaliana DWF1 protein K521D, Y522G, R523D triple mutant (protein, listed as Arabidopsis thaliana)
chain: B1 chain with K521D, Y522G, R523D, D531V
B3: Δ518-539: Arabidopsis thaliana DWF1 protein Δ518-539 mutant, a total deletion of the CaMBD (protein, listed as Arabidopsis thaliana)
chain: MSDLQTPLVRPKRKKTWVDYFVKFRWIIVIFIVLPFSATFYFLIYLGDMWSESKSFEKRQKEHDENVKKVIKRLKGRDASKDGLVCTARKPWIAVGMRNVDYKRARHFEVDLGEFRNILEINKEKMTARVEPLVNMGQISRATVPMNLSLAVVAELDDLTVGGLINGYGIEGSSHIYGLFADTVEAYEIVLAGGELVRATRDNEYSDLYYAIPWSQGTLGLLVAAEIRLIKVKEYMRLTYIPVKGDLQALAQGYIDSFAPKDGDKSKIPDFVEGMVYNPTEGVMMVGTYASKEEAKKKGNKINNVGWWFKPWFYQHAQTALKKGQFVEYIPTREYYHRHTRCLYWEGKLILPFGDQFWFRYLLGWLMPPKVSLLKATQGEAIRNYYHDMHVIQDMLVPLYKVGDALEWVHREMEVYPIWLCPHKLFKQPIKGQIYPEPGFEYENRQGDTEDAQMYTDVGVYYAPGCVLRGEEFDGSEAVRRMEKWLIENHGFQPQYAVSELDEKSFWRMFNGELYEEKTEKEVREAEQAHLETAYAEAD
B4: DWF1: wild-type Arabidopsis DWARF1 (At3g19820), expressed from 35S::DWF1 in cW plants (protein, listed as Arabidopsis thaliana)
chain: B1 chain with D531V

Data on four molecules can be found in patent publication US20070089183A1, “Size and/or growth engineering by modulation of the interaction between calmodulin, and brassinosteroid biosynthetic enzymes and orthologs therof” (Washington State University, priority 2005, published 2007).

Where a chain is given by its changes, count along the chain named. Names and notes keep the numbering of the source.

In one test the test system is 35S-CaM. Kind of test: 35S-CaM-binding assay. Conditions: purified recombinant protein covering amino acid 517 to the stop codon, 2 μg per lane. The procedure:
Total proteins from E. coli expressing pScreen-1b (lane 1) or expressing pScreen-1b-517-561 (lane 2) were stained (left panel) or bound to ^35S-CaM in the presence of Ca^2+ (middle panel) or EGTA (right panel), a Ca^2+ chelator. […] Total proteins from plants expressing the Flag-tagged DWF1 (DWF1-Flag) or wild-type plants (WT) were incubated with antibodies against full-length human CaM1 (anti-CaM1), AtBET10 (anti-AtBET10) or non-immune serum (Non-im.); immunocomplexes were separated on SDS-PAGE and detected with anti-Flag M2 monoclonal antibody. […] Total proteins from E. coli expressing pET32b (lane 1), pET32b-1-349 (lane 2), pET32b-348-518 (lane 3), pScreen-1b (lane 4) or pScreen-1b-517-561 (lane 5) were stained (left) or were bound to ^35S-CaM (right). […] CaM and the peptide-CaM complex is indicated.
To confirm further the CaM-binding ability of DWF1, the positive clone from the library screening was expressed in Escherichia coli and tested for ^35S-CaM binding^15 in the presence of Ca^2+, EGTA, a Ca^2+ chelator, or Mg^2+. […] C-terminal Flag-tagged DWF1 overexpression lines of Arabidopsis were produced to study the DWF1-CAM interaction in vivo. Because of the dynamic nature of the interaction between DWF1 and Ca^2+/CaM, co-immunoprecipitation using a prior in vivo crosslinking strategy^16 was adapted to verify their interaction under physiological conditions.
The CaMBD is typically comprised of a stretch of 12-30 contiguous amino acids that contain a positive net charge and have a propensity to form an amphiphilic α-helix^4. […] A peptide corresponding to 518-539 was synthesized, and its CaM-binding ability was confirmed using PCM6 (ref. 17) in a gel mobility shift assay^15 (FIG. 1e).
Mutants. Three mutants were produced to disrupt the conserved secondary structure of the CaMBD of DWF1 (FIG. 6, Panel B): V531D (M1), aimed at disturbing the hydrophobic surface; KYR521-523DGD (M2, K521, Y522 and R523 are changed to D521, G522 and D523), aimed at changing the net surface charges; and Δ518-539 (M3), a total deletion of the CaMBD. […]
Consider B1, for which the CaM-binding ability entry is reported as “markedly decreased”.

Turning to B2, the CaM-binding ability entry is “undetectable”.

For B3, the CaM-binding ability entry is reported as “undetectable”.

In the next test the test system is DWF1 function (sitosterol/isofucosterol levels). Kind of test: GC-MS sterol analysis of complemented plants. The format is in vivo, Arabidopsis. Conditions: endogenous sitosterol/isofucosterol by GC-MS, six- to seven-week-old plants. As for the experimental part:
DWF1 catalyses the conversion of isofucosterol to sitosterol and 24-methylenecholesterol to campesterol^6,7. The endogenous levels of sitosterol/isofiicosterol or campesterol/24-methylenecholesterol in wild-type, dwarf and complemented plants were analysed using gas chromatography-mass spectrometry (GC-MS) to monitor the function of the complementing DWF1, DWF1(V531D), DWF1(KYR521-523DGD) and DWF1(Δ518-539) carried in cW, cM1, cM2 and cM3 plants, respectively.
Sterol analysis. Six- to seven-week-old greenhouse-grown plants were harvested and ground into a fine powder in liquid nitrogen. Aliquots of 100 mg ground material were sponified in 1 N NaOH, 70% ethanol at 70° C. for 2 h. The sterols were extracted three times with 500 μl hexane, and the combined extracts were dried and dissolved in 100 μl of methylene chloride. GC-MS analyses were conducted on an Agilent 6890 GC system with 5973N mass selective detector. A 1 μl aliquot of methylene chloride extract containing the underivatized sterols was loaded by cool on column injection on a Zebron (Phenomenex) ZB-5 column, 30 m×0.25 mm internal diameter with 0.25 μm film thickness. Chromatography was accomplished using He as the carrier gas at a flow rate of 0.7 ml min^−1. The column oven temperature was programmed to run from 40° C. to 300° C. increased at 20° C. min^−1, with a hold for 10 min at 300° C. Identification and quantification of sterols was accomplished by comparison to authentic standards based on the retention time, peak area and mass fragmentation pattern.
Consider B4, for which the “recovery of DWF1 function” value is listed as “recovered to a level comparable to that in wild-type plants”.

In the case of B1, the “recovery of DWF1 function” value is given as “restored to some extent”.

As for B2, the “recovery of DWF1 function” value is listed as “almost non-existent”.

Regarding B3, the “recovery of DWF1 function” value is “almost non-existent”.

The next test relates to dwf1 null mutant. Put plainly: complementation of dwf1 null mutant, plant phenotype. The format is in vivo, Arabidopsis. Conditions: 35S promoter-driven construct in homozygous dwf1 knockout. An excerpt:
To circumvent the infertility problem associated with homozygous dwf1 mutants^6,7, a heterozygous dwf1 line (SALK—006932, ref. 23) was chosen for transformation. A T-DNA insert is shown in FIG. 6, panel A, and detailed characterizations confirmed that it is a heterozygous dwf1 null mutation line (FIG. 2a, b).
Specifically, heterozygous SALK—006932 plants were transformed with a 35S::DWF1 construct (FIG. 6, panel B). […] Using polymerase chain reaction (PCR) analysis, one dwarf and seven normal plants were identified that carried at least one copy of the 35S::DWF1 complementary construct and were homozygous knockout at the endogenous DWF1 loci. The dwarfism in the dwarf plant was confirmed to be caused by a failure in expression of the transgene (FIG. 2c, d). The overexpressed (numbers 1, 2, 3, 8) and equally expressed (numbers 5, 7) lines grew like the wild-type, confirming a previous report^6. […] At the adult stage, 7 out of the 8 complemented lines reached similar levels of height and fertility as that of wild-type plants (FIG. 3c).
Mutants. Three mutants were produced to disrupt the conserved secondary structure of the CaMBD of DWF1 (FIG. 6, Panel B): V531D (M1), aimed at disturbing the hydrophobic surface; KYR521-523DGD (M2, K521, Y522 and R523 are changed to D521, G522 and D523), aimed at changing the net surface charges; and Δ518-539 (M3), a total deletion of the CaMBD. […] A similar strategy was used to deliver the mutant dwf1 complimentary constructs (FIG. 6, Panel B) into the heterozygous dwf1 plants. Visual checks identified 18, 11 and 19 dwarf plants in the T1 population carrying 35S::DWF1(V531D), 35S::DWF1(KYR521-523DGD) and 35S::DWF1(Δ518-539) complimentary constructs, respectively. These plants were confirmed to carry at least one copy of the transgene and the homozygous knockout at the endogenous DWF1 loci.
To ensure a reliable comparison of the complementary effects of normal DWF1 and the three mutants, T2 plants with similar expression levels were compared (FIG. 3b-d). […] Seeds were produced in most of the slightly shorter siliques of cM1 plants (FIG. 3b, c). […] The dwarf phenotypes of cM1, cM2, cM3 and the dwf1 mutant were rescued by exogenous application of brassinolide (data not shown).
Consider B4, for which the “phenotype rescue of dwf1 mutant” value is listed as “completely rescue”.

For the molecule B1, the “phenotype rescue of dwf1 mutant” value is “some degree of phenotype rescue”.

With B2, the “phenotype rescue of dwf1 mutant” value was “very slight phenotypic rescue”.

For the molecule B3, the “phenotype rescue of dwf1 mutant” value is listed as “grew like the uncomplemented dwf1 mutants”.

The same test, now with this note: T2 plants with similar expression levels.
Consider B1, for which the “height of flowering stems relative to the wild-type plant” value was “up to 40%”.
